This data set can be described thus: total protein half-life in vivo (active degradation + dilution); higher = more stable protein.
Setting [1] is: E. coli NCM3722 delta-clpP delta-lon delta-hslV, growth: N-lim chemostat, doubling time 6 h.
Setting [2] is: E. coli NCM3722 delta-clpP, growth: N-lim chemostat, doubling time 6 h.
[3] abbreviates: wild type E. coli NCM3722, growth: C-lim chemostat, doubling time 3 h.
The mark [4] stands for this setting: wild type E. coli NCM3722, growth: C-lim chemostat, doubling time 6 h.
The mark [5] stands for this setting: wild type E. coli NCM3722, growth: C-lim chemostat, doubling time 12 h.
[6] abbreviates: E. coli NCM3722 delta-hslV, growth: N-lim chemostat, doubling time 6 h.
Where [7] appears, read: E. coli NCM3722 delta-lon, growth: N-lim chemostat, doubling time 6 h.
Where [8] appears, read: E. coli NCM3722 delta-smpB, growth: N-lim chemostat, doubling time 6 h.
Where [9] appears, read: wild type E. coli NCM3722, growth: N-lim chemostat, doubling time 6 h.
[10] abbreviates: wild type E. coli NCM3722, growth: N-lim chemostat, doubling time 12 h.
Setting [11] is: wild type E. coli NCM3722, growth: P-lim chemostat, doubling time 6 h.
The mark [12] stands for this setting: wild type E. coli NCM3722, growth: P-lim chemostat, doubling time 12 h.

± gives the standard deviation of the averaged measurements. Some results are limits rather than exact numbers.

On to “MRFSTQMMYQQNMRGITNSQAEWMKYGEQMSTGKRVVNPSDDPIAASQAVVLSQAQAQNSQYTLARTFATQKVSLEESVLSQVTTAIQNAQEKIVYASNGTLSDDDRASLATDIQGLRDQLLNLANTTDGNGRYIFAGYKTETAPFSEEKGKYVGGAESIKQQVDASRSMVIGHTGDKIFDSITSNAVAEPDGSASETNLFAMLDSAIAALKTPVADSEADKETAAAALDKTNRGLKNSLNNVLTVRAELGTQLNELESLDSLGSDRALGQTQQMSDLVDVDWNATISSYIMQQTALQASYKAFTDMQGLSLFQLSK”, for which the “total protein half-life in vivo” value was 2.65 ± 0.11 h under setting [1]; above 8 h under setting [2]; 0.265 ± 0.026 h under setting [3]; 0.393 ± 0.063 h under setting [4]; 0.399 ± 0.39 h under setting [5].

On to “MKRIAFVFSTAPHGTAAGREGLDALLATSALTDDLAVFFIADGVFQLLPGQKPDAVLARDYIATFKLLGLYDIEQCWVCAASLRERGLDPQTPFVVEATPLEADALRRELANYDVILRF”, for which the “total protein half-life in vivo” value is 5 ± 0.57 h under setting [1]; 4.73 h under setting [2]; 4.7 ± 0.82 h under setting [6]; 5.18 ± 0.19 h under setting [7]; 4.61 ± 0.23 h under setting [8]; above 4 h under setting [3]. The “total protein half-life in vivo” value under setting [4] was determined as 6 ± 0.18 h; the “total protein half-life in vivo” value under setting [5] worked out at 11.2 ± 0.57 h; the “total protein half-life in vivo” value under setting [9] is 4.83 ± 0.091 h; the “total protein half-life in vivo” value under setting [10] worked out at 7.67 ± 0.38 h; the “total protein half-life in vivo” value under setting [11] was 5.89 ± 1.2 h; the “total protein half-life in vivo” value under setting [12] was 13.9 ± 2.3 h.

As for “MQVLHVCSEMFPLLKTGGLADVIGALPAAQIADGVDARVLLPAFPDIRRGVTDAQVVSRRDTFAGHITLLFGHYNGVGIYLIDAPHLYDRPGSPYHDTNLFAYTDNVLRFALLGWVGAEMASGLDPFWRPDVVHAHDWHAGLAPAYLAARGRPAKSVFTVHNLAYQGMFYAHHMNDIQLPWSFFNIHGLEFNGQISFLKAGLYYADHITAVSPTYAREITEPQFAYGMEGLLQQRHREGRLSGVLNGVDEKIWSPETDLLLASRYTRDTLEDKAENKRQLQIAMGLKVDDKVPLFAVVSRLTSQKGLDLVLEALPGLLEQGGQLALLGAGDPVLQEGFLAAAAEYPGQVGVQIGYHEAFSHRIMGGADVILVPSRFEPCGLTQLYGLKYGTLPLVRRTGGLADTVSDCSLENLADGVASGFVFEDSNAWSLLRAIRRAFVLWSRPSLWRFVQRQAMAMDFSWQVAAKSYRELYYRLK [P0A6U8]”, the “total protein half-life in vivo” value was determined as 6.98 ± 0.61 h under setting [1]; 6.92 ± 1.1 h under setting [2]; 6.028 ± 0.0091 h under setting [6]; 5.806 ± 0.035 h under setting [7]; 5.83 ± 0.06 h under setting [8]; 3.03 ± 0.11 h under setting [3]. In addition, the “total protein half-life in vivo” value amounted to 6.7 ± 0.36 h under setting [4]; 11.4 ± 0.49 h under setting [5]; 6.21 ± 0.21 h under setting [9]; 13.2 ± 2 h under setting [10]; 6.32 ± 0.3 h under setting [11]; 12.4 ± 0.65 h under setting [12].

As for “MKVAVLGAAGGIGQALALLLKTQLPSGSELSLYDIAPVTPGVAVDLSHIPTAVKIKGFSGEDATPALEGADVVLISAGVARKPGMDRSDLFNVNAGIVKNLVQQVAKTCPKACIGIITNPVNTTVAIAAEVLKKAGVYDKNKLFGVTTLDIIRSNTFVAELKGKQPGEVEVPVIGGHSGVTILPLLSQVPGVSFTEQEVADLTKRIQNAGTEVVEAKAGGGSATLSMGQAAARFGLSLVRALQGEQGVVECAYVEGDGQYARFFSQPLLLGKNGVEERKSIGTLSAFEQNALEGMLDTLKKDIALGEEFVNK”, the “total protein half-life in vivo” value is, setting by setting: under setting [1], 4.53 ± 0.53 h; under setting [2], 3.92 ± 0.44 h; under setting [6], 3.803 ± 0.013 h; under setting [7], 4.42 ± 0.25 h; under setting [8], 3.84 ± 0.068 h; under setting [3], 3.039 ± 0.028 h. Moreover, the “total protein half-life in vivo” value under setting [4] is 5.65 ± 0.34 h; the “total protein half-life in vivo” value under setting [5] was found to be 9.69 ± 0.74 h; the “total protein half-life in vivo” value under setting [9] came to 3.98 ± 0.16 h; the “total protein half-life in vivo” value under setting [10] came to 6.2 ± 0.2 h; the “total protein half-life in vivo” value under setting [11] turned out to be 5.94 ± 0.074 h; the “total protein half-life in vivo” value under setting [12] was determined as 11.8 ± 0.51 h.

Turning to “MMDSLRTAANSLVLKIIFGIIIVSFILTGVSGYLIGGGNNYAAKVNDQEISRGQFENAFNSERNRMQQQLGDQYSELAANEGYMKTLRQQVLNRLIDEALLDQYARELKLGISDEQVKQAIFATPAFQVDGKFDNSRYNGILNQMGMTADQYAQALRNQLTTQQLINGVAGTDFMLKGETDELAALVAQQRVVREATIDVNALAAKQPVTEQEIASYYEQNKNNFMTPEQFRVSYIKLDAATMQQPVSDADIQSYYDQHQDQFTQPQRTRYSIIQTKTEDEAKAVLDELNKGGDFAALAKEKSADIISARNGGDMGWLEDATIPDELKNAGLKEKGQLSGVIKSSVGFLIVRLDDIQPAKVKSLDEVRDDIAAKVKHEKALDAYYALQQKVSDAASNDTESLAGAEQAAGVKATQTGWFSKDNLPEELNFKPVADAIFNGGLVGENGAPGINSDIITVDGDRAFVLRISEHKPEAVKPLADVQEQVKALVQHNKAEQQAKVDAEKLLVDLKAGKGAEAMQAAGLKFGEPKTLSRSGRDPISQAAFALPLPAKDKPSYGMATDMQGNVVLLALDEVKQGSMPEDQKKAMVQGITQNNAQIVFEALMSNLRKEAKIKIGDALEQQ [P0ADY1]”, the “total protein half-life in vivo” value is, setting by setting: under setting [1], 6.92 ± 0.99 h; under setting [2], 6.533 ± 0.039 h; under setting [6], 5.89 ± 0.078 h; under setting [7], 6.39 ± 0.26 h; under setting [8], 6.15 ± 0.67 h; under setting [3], 3.05 ± 0.23 h. For the same sequence, the “total protein half-life in vivo” value turned out to be 5.96 ± 0.096 h under setting [4]; 12.7 ± 1.2 h under setting [5]; 6.17 ± 0.25 h under setting [9]; 12.8 ± 1.7 h under setting [10]; 5.92 ± 0.088 h under setting [11]; 12.4 ± 0.2 h under setting [12].

Source of the values: the supplement of paper PMC11246515.
